The values below come from patent US20240400718A1.

For assay [1], the target named is #231: CAR with VL-L1-VH scFv, Human 3rd-generation. Put plainly: subclone supernatant on HEK293T cells transiently expressing the scFv; % positive cells.
For assay [2] the target is unchanged. The assay can be described thus: flow cytometry on CAR-T cells; PE-labeled secondary antibody; PE-positive cells / total cells.
The target in assay [3] is #264: VH-L1-VL CAR-T. The assay is described as above.
Assay [4] has as its target #371: VL-L2-VH CAR-T. The assay is described as above.
Assay [5] addresses #628: VH-L2-VL CAR-T. The description is as above.
Assay [6] addresses #651: VH-L2-VL CAR-T. Described as above.
The target of assay [7] is S#017: CAR with VH-L2-VL scFv, Human 3rd-generation_hIL7_hCCL19_HSVtk. The description is as above.
The target of assay [8] is S#027: VH-L1-VL CAR-T. The assay is described as above.
Assay [9] deals with S#031: CAR with VH-L1-VL scFv, Human 3rd-generation_hIL7_hCCL19_HSVtk. Described as above.
For assay [10], the target named is S#050: VH-L1-VL CAR-T. Described as above.
Assay [11] addresses S#066: VL-L2-VH CAR-T. The description is as above.
The target of assay [12] is S#067: CAR with VL-L1-VH scFv, Human 2nd-generation (4-1BB)_hIL7_hCCL19_HSVtk. The description is as above.
In assay [13] the target is S#074: VL-L2-VH CAR-T. The description is as above.
Chain of S#074: VL-L2-VH CAR-T (main, as listed by the source): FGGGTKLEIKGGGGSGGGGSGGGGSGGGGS
In assay [14] the target is S#075: CAR with VL-L1-VH scFv, Human 2nd-generation (4-1BB)_hIL7_hCCL19_HSVtk. Described as above.
Assay [15] addresses S#076: VH-L2-VL CAR-T. Described as above.
Assay [16] addresses S#084: VL-L2-VH CAR-T. The description is as above.
The target of assay [17] is S#085: VL-L1-VH CAR-T. The assay is described as above.
Assay [18] addresses S#097: VL-L2-VH CAR-T. The assay is described as above.
Assay [19] deals with S#104: VL-L1-VH CAR-T. Described as above.

Chain of S#076: VH-L2-VL CAR-T (main, as listed by the source): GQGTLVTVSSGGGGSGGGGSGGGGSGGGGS
Chain of #231: CAR with VL-L1-VH scFv, Human 3rd-generation (main, as listed by the source): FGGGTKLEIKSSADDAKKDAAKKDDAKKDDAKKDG
Chain of #371: VL-L2-VH CAR-T (main, as listed by the source): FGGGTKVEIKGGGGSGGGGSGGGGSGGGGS

B1: 3E7-C1 (antibody, V domains shown)
VH: QVQMKESGPGLVQPSETLSLTCTVSGFSLTSYGVSWVRQPSGKGPEWMGRLWNDGDTAYNSALKSRLSISRDTSKNQVFLKMNSLQTDDTGTYYCTTMNGYKDYWGQGVMVTVSS
VL: TSYELIQPPSASVTLGNTVSLTCVGDELPKRYAYWYQQKPDQSIVRVIYEDSKRPSGISDRFSGSSSGTTATLTIRDAQAEDEADYYCHSTYSDDKLRIFGGGTKLTVLG
In assay [1], B1 yielded a Positive (%) of 24.5%. The Reactivity (%) in assay [2] came to 69.6%; in assay [3], 0%; in assay [4] it was 0%; in [5] it was 0%; in assay [6], 0.1%; in [7], 0%. For the same molecule, the Reactivity (%) was determined as 0% in [8]; 2.2% in assay [9]; 0.1% in assay [10]; 0.1% in [11]; 41% in assay [12]; 0.1% in [13]. For the same molecule, the Reactivity (%) in assay [14] stood at 25.9%; in [15], 0.1%; in assay [16], 0%; in assay [17], 41.4%; in assay [18] it was 0%; in [19], 21.5%.

B2: 4B9-B11 (antibody, V domains shown)
VH: QMQLKESGPGLVQPSETLSLTCTVSGFSLTSYSVSWVRQPSGKGPEWMGRMYYDGDTAYNSALKSRLSISRDTSKNQVFLKMNSLQTDDTGTYYCTRSIGAEDYWGQGVMVTVSS
VL: TSYELIQPPSASVTLGNTVSLTCVGDELPKRYAYWYQQKPDQSIVRVIYEDSKRPSGISDRFSGSSSGTTATLTIRDAQNEDEADYYCHSTYSDDKLRIFGGGTKLTVLG
In the case of B2, in assay [1], the Positive (%) worked out at 60%. Further, the Reactivity (%) in [2] worked out at 74.6%; in [3], 0%; in assay [4] it was 0.1%; in [5] it was 0.2%; in assay [6], 0.2%; in [7], 0%. Moreover, the Reactivity (%) in assay [8] turned out to be 1%; in [9], 9.7%; in assay [10] it was 1.1%; in assay [11], 0.1%; in [12], 41.5%; in assay [13], 1.4%. Besides, the Reactivity (%) in assay [14] was found to be 35.7%; in assay [15], 0.2%; in [16], 0.1%; in assay [17] it was 49.6%; in [18], 0.1%; in assay [19] it was 29.1%.

B3: 3A4-A10-7 (antibody, V domains shown)
VH: QVQLQQSGAALVKPGASVKMSCKASGYTFTDCWVSWVKQSHGKSLEWIGEIHPNSGTTNFNEKFKGKATLTVDKSTSTAYMELSRLTSEDSAIYYCTRAYGGYPFDYWGQGVMVTVSS
VL: ADLVLTQPKSVSTSLESTVKLSCKLNSGNIGRYYMHWYQQHEGRSPTNMIYRDDKRPDGVPDRFSGSIDSSSNSAFLTINNVQTEDEAIYFCHSYDSSINIFGGGTKLTVLG
Turning to B3, the Reactivity (%) in assay [2] came to 23.9%; in assay [3] it was 36.7%; in [4], 0.2%; in assay [5] it was 0.1%; in assay [6] it was 0.2%; in [7] it was 0%. The Reactivity (%) in assay [8] was determined as 45.7%; in assay [9], 45.3%; in assay [10] it was 18.5%; in assay [11] it was 0.2%; in assay [12] it was 22.3%; in assay [13], 0.2%. Besides, the Reactivity (%) in assay [14] was determined as 12.3%; in assay [15], 0.2%; in assay [16], 0.1%; in assay [17] it was 2.2%; in assay [18], 0.1%; in assay [19], 5.2%.

B4: 2D12-B12 (antibody, V domains shown)
VH: EVKLVESGGGLVQPGRSLKLSCAASGFNFNDYWMGWVRQAPGKGLEWIGEIKKDSSIINYIPSLKDKFTISRDNAQNTLYLQMSKLGSEDTAIYYCARGVEYYGYHYWGQGTLVTVSS
VL: DIVMTQSPSSLAVSAGETVTINCKSSQSLLYSGNQKNYLAWYQQKPGQSPKLLIYWASTRHSGVPARFIGSGSGSDFTLTISSVQAEDLAIYCCQQYYDIPYTFGAGTKLELK
For the molecule B4, the Reactivity (%) is 67.4% in assay [2]; 11.1% in assay [3]; 0.2% in assay [4]; 0.2% in assay [5]; 0.4% in assay [6]; 0% in [7]. In addition, the Reactivity (%) in assay [8] came out at 28.4%; in assay [9], 64.6%; in assay [10], 14.5%; in assay [11] it was 0.9%; in [12], 34.9%; in assay [13] it was 0.8%. In addition, the Reactivity (%) stood at 15% in assay [14]; 0.2% in assay [15]; 0.3% in [16]; 0.8% in assay [17]; 0.3% in [18]; 13.4% in assay [19].
